The text below walks through data of patent US20140322759.

The term Kd denotes the free concentration of one partner at which half of the binding sites on the other are occupied at equilibrium, for simple one-to-one binding. A low value points to higher affinity.

Where a chain is given by its changes, count along the chain named.

Test in all cases: EMSA
(A gel shift assay detects complexes by their altered migration in electrophoresis.)

For series [1], the target named is T1, phi29 DNA polymerase E515A E515A (Bacillus phage phi29) (UniProt P03680).
T1 sequence: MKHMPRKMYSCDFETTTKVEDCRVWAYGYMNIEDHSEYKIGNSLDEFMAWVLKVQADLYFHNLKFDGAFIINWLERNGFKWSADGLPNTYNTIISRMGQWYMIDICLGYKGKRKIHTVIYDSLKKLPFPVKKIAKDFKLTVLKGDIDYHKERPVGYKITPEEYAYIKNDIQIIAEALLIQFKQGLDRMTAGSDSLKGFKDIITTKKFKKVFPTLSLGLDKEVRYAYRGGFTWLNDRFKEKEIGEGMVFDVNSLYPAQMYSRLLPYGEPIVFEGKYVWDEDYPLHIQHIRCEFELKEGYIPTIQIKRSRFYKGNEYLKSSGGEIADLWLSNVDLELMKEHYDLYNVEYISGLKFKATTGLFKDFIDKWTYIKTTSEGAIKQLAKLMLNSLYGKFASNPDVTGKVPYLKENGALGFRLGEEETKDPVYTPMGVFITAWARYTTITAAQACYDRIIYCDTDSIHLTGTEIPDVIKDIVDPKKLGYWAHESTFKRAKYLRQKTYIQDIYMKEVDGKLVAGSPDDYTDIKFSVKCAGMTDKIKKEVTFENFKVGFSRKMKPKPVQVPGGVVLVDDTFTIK
The conditions noted are these: SD 56.5; unit not given (μM in assay); pH 7.9, 66 mM K-acetate, 30 C.

Series [2] concerns the target T2, phi29 DNA polymerase M8R M8R (Bacillus phage phi29) (UniProt P03680).
T2 sequence: T1 sequence with M8R, A515E
As to conditions: SD 2.1; unit not given (μM in assay); pH 7.9, 66 mM K-acetate, 30 C.

Series [3] has as its target T3, phi29 DNA polymerase Mut_4 M8R,V51A,M97T,G197D,E221K (Bacillus phage phi29) (UniProt P03680).
T3 sequence: T1 sequence with M8R, V51A, M97T, G197D, E221K, A515E
As to conditions: SD 10.6; unit not given (μM in assay); pH 7.9, 66 mM K-acetate, 30 C.

Series [4] addresses T4, phi29 DNA polymerase Mut_5 M8R,V51A,M97T,G197D,E221K,Q497P,K512E,F526L (Bacillus phage phi29) (UniProt P03680).
T4 sequence: T1 sequence with M8R, V51A, M97T, G197D, E221K, Q497P, K512E, A515E, F526L
As to conditions: SD 7.4; unit not given (μM in assay); pH 7.9, 66 mM K-acetate, 30 C.

As to “GATCACAGTGAGTAC / TCTATTGTACTCACTGTGATC [15-mer/21-mer primer/template]”, the Kd in series [1] is 97 µM; in series [2], 43 µM; in series [3] it was 67 µM; in series [4], 23 µM.
